Assay results as given in the supplement of paper PMC9170038.

Test system: MS2 coat protein
Experiment: apparent KD of MS2 coat protein; designed switch direction (-1 OFF switch, 1 ON switch): 1; higher = weaker reporter binding
Outline: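 On Illumina chips, designed RNA switches with common flanks were made by stalled E. coli RNA polymerase. Titrations with SNAP-549-labelled MS2 coat protein, doubling from 0.7 or 1.5 nM to 3 µM, were done with no input, with 200 uM small-molecule ligand, or with an oligonucleotide input. Apparent KD is the median per design over clusters, from curve fits of normalised cluster fluorescence.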

[1] = input ligand: microRNA oligo, concentration not stated
[2] = Eterna round: R95, input ligand: FMN 200 uM
[3] = Eterna round: R95, input ligand: microRNA oligo, concentration not stated
[4] = Eterna round: R95, input ligand: none

Row | Sequence | apparent KD of MS2 coat protein (input ligand: FMN 200 uM) | apparent KD of MS2 coat protein [1] | apparent KD of MS2 coat protein (input ligand: none) | apparent KD of MS2 coat protein [2] | apparent KD of MS2 coat protein [3] | apparent KD of MS2 coat protein [4]
1 | AAAGGAUGAUUAUACAUGAGGAUCACCCAUGUAAGUAAUACUAAGGAUAUGUGACUUAAUUGUUUACAGAAGGUAGGUUCAUGA [AK SSNG3-V2-1.1] (Eterna round: R96, puzzle: Same State NG 3) | 58.8 nM | 230 nM | 117 nM | – | – | –
2 | AUAUUCUUCCGCGACACCCACAUGAGGAUCACCCAUGUUGAACAGGAUAUGUAGUUCAUCUGAACACAGAAGGGUUAAAGGAAG [Eternabot solution 28] (Eterna round: R96, puzzle: Same State NG 3) | 16.5 nM | 16.5 nM | 20 nM | – | – | –
3 | AAGAGGUCCGCAGGAUAUACCCGGGCUCGCCGGGUAGAAGGGUGAACCUCAUAACCCACCACACACAUGAGGAUCACCCAUGUA [Tedile] (Eterna round: R96, puzzle: Same State NG 1) | 113 nM | 219 nM | 4.57 nM | – | – | –
4 | UAUUAAGCUGUAGGAUAUCUAGGAUAUGGACGAGGAUCACCCGAGCAGCAUCAGCGCACCAGAGGAGAGAAGGACGCUUUGGUG [pwkr ssNG2 2F5 2FMN.23] (Eterna round: R96, puzzle: Same State NG 2) | 961 nM | 348 nM | 2730 nM | – | – | –
5 | AUAAGUUCGAUGCUCGUCUCUCCGUACAAACAUGAGGAUCACCCAUGUGAUUGGGCAAUAGCCCAAUCAGUAUGACC [Gemaa] (puzzle: Sensor for hsa-mir-208a) | – | – | – | 38.1 nM | 26 nM | 41.5 nM
6 | UUACUCAUGUAAGGAUAUGCAGCCGAAACGGCUGCAGAAGGUACUAAAAUACAUGAGGAUCACCCAUGUCUUUUUAAUUUAGAC [Mat - Same State NG 1 - JL mod - D83] (Eterna round: R96, puzzle: Same State NG 1) | 58.4 nM | 28.4 nM | 33.3 nM | – | – | –
7 | GUGGUCUGACAUGAGGAUCACCCAUGUGGAAUAAAUACGGGUUAGGAUAUCUUGAGGAUCACCCAAGAGAAGGGAUGGAUUGUU (Eterna round: R96, puzzle: Same State NG 3) | 83.9 nM | 54.7 nM | 80.8 nM | – | – | –
8 | GCUGCAAGGGCAGGAUAUGGGUUCAGAGCAGAAGUGCGCUUUGAUACAUGAGGAUCACCCAUGUCCCAGAAGGGCCCAAGCGGC [Veribe] (Eterna round: R96, puzzle: Same State NG 2) | 17.7 nM | 98.3 nM | 159 nM | – | – | –
9 | AAAAUGUGAUGUCACAUGAGGAUCACCCAUGUGGUGACAACUAAGGAUAUAACGAACCAAGGCGAUUAGAAGGUAGGAUCACAA [AK SSNG3-V2-17] (Eterna round: R96, puzzle: Same State NG 3) | 102 nM | 120 nM | 207 nM | – | – | –
10 | UUAAUAAUGUUAGGAUAUACAUGAGGAAUCCUCGUAGAAGGAACAUGACAUGAGGAUCACCCAUGUAGCGCUCCGAAGAGCGCA [Mat - Same State NG 1 - JL mod - D46] (Eterna round: R96, puzzle: Same State NG 1) | 254 nM | 115 nM | 161 nM | – | – | –
11 | GGUAGGUUACUACCAUACAUGAGGAUCACCCAUGUAAAUGGGAAGGAUAUGGUACCUAUUUGGUACCAGAAGGUCCAAUUAAUU [JL Fiskers NG3ss - 2 mod 3] (Eterna round: R96, puzzle: Same State NG 3) | 148 nM | 446 nM | 706 nM | – | – | –
12 | AUUGCUUACGCAGGAUAUGAUGCGAAAAUUGCGUCAGAAGGGUGAAGUGACUCAUUGCAACAGGACAUGAGGAUCACCCAUGUC [SameState NG1 #90] (Eterna round: R96, puzzle: Same State NG 1) | 184 nM | 305 nM | 708 nM | – | – | –
13 | AACAAUCUAUCUGAGGAUAUCAUGAAAUAAACAUGAGGAUCACCCAUGUGCAGGAAUACUGCAUAUGAGAAGGCAGAUAGAUUGA [salish99_ss2_r3_042] (puzzle: Same State 2) | – | – | – | 86 nM | 1040 nM | 4050 nM
14 | ACUAGAAACGGGCAAUAACACAUGAGGAUCACCCAUGUGACACAGGAUAUAACCAGAUCAGAAAGUUAGAAGGGUGAGCCCGCA [Edraed] (Eterna round: R96, puzzle: Same State NG 3) | 13.2 nM | 25.9 nM | 35 nM | – | – | –
15 | GGAGCCGGCACUGAGGAUAUUCAUAGUGUAACAUGAGGAUCACCCAUGUAGGCCCUGAGGCCUUGGGAGAAGGCAGGUCGGCUCG [JL-ss2-3.04 ViennaUCT mod] (puzzle: Same State 2) | – | – | – | 31.8 nM | 239 nM | 445 nM
16 | UUUAUAUUCAGAGGAUAUUGAUGUUGUAUUUUACAAGAAGGCUGUUUGUUUUGUAAUGUUAUUAUACAUGAGGAUCACCCAUGU [JR_SSNG1_Sub015] (Eterna round: R96, puzzle: Same State NG 1) | – | 16.8 nM | – | – | – | –

Row | Sequence | apparent KD of MS2 coat protein (input ligand: FMN 200 uM) | apparent KD of MS2 coat protein [1] | apparent KD of MS2 coat protein (input ligand: none) | apparent KD of MS2 coat protein [2] | apparent KD of MS2 coat protein [3] | apparent KD of MS2 coat protein [4]
17 | AGAAAACAUGAGGAUCACCCAUGUAUAGUGAAUACAGGAUAUCACCAACGGAAUAGUCGGUGAGAAGGGUGAUCGC [Zaxelate] (puzzle: Same State 1) | – | – | – | 18.5 nM | 11.3 nM | 14.2 nM
18 | GGCCAGAGUCAAGGAUAUGCUACCGUUUCGGUAGCAGAAGGUGAUCACAUGAGGAUCACCCAUGUUUACUGCGAGAGCAUGGCC [JL SSNG1 3.68] (Eterna round: R96, puzzle: Same State NG 1) | 809 nM | 103 nM | 34.1 nM | – | – | –
19 | GUGGUGAAUUAAGGAUAUCGAGUCUAGAUGUUAAACAUGAGGAUCACCCAUGUGGGUUGCGGUGUCGAGAAGGUGGUUUACGGG [salish99_SSNG2_r04_510] (Eterna round: R96, puzzle: Same State NG 2) | 63.2 nM | 84 nM | 72.3 nM | – | – | –
20 | GUUACAUGAGGAUCACCCAUGUAUGUGUGGGAGUAAGUGUCUUAGGAUAUCUAGUAUUUAAUCUAAGAGAAGGAAGAUUGUUGU [JMF's solution 65] (Eterna round: R96, puzzle: Same State NG 3) | 105 nM | 74.1 nM | 128 nM | – | – | –
21 | GUAGCAUACCGAGGAUAUUCAUAUACAUGAGGAUCACCCAUGUUUAGGCCACAUUAGUGGCCUUGGGAGAAGGCGGAAUGCUAC [Xeonanis - 20 Mod44] (Eterna round: R96, puzzle: Same State NG 2) | 13 nM | 15.7 nM | 23.4 nM | – | – | –
22 | AGAGCCGGCACCGAGGAUAUUCAUAUUAAAACAUGAGGAUCACCCAUGUAGGCCAGAAGGCCUUGGGAGAAGGCGGAUCGGCUCG [Xeonanis - 7] (Eterna round: R96, puzzle: Same State 2) | 32.5 nM | 335 nM | 559 nM | – | – | –
23 | CUACGAGCGCCACAGGAUAUACUGAGACUCACAUGAGGAUCACCCAUGUCCAAUUCUCCCAAAUAGUAGAAGGGUGACGCGCUCG [Maenve] (Eterna round: R96, puzzle: Same State 2) | 35.5 nM | 426 nM | 562 nM | – | – | –
24 | GCCGCAAGGGCAGGAUAUGGGUCCAGAGUGCAAAUGCACUCCGGUACAUGAGGAUCACCCAUGUCCCAGAAGGGCCCAAGCGGC [Bilaatdi] (Eterna round: R96, puzzle: Same State NG 2) | 12.8 nM | 144 nM | 163 nM | – | – | –
25 | CGCGGUAAGGAAGGAUAUGGGACGAAAACGUACCUAGAAGGUCCACAUGAGGAUCACCCAUGUACCAAGAAAGCCGCGAAAUUA [Cereraus] (Eterna round: R96, puzzle: Same State NG 1) | 90.7 nM | 276 nM | 410 nM | – | – | –
26 | GUGGUCAGACAUGAGGAUCACCCAUGUGGAAUAAAUAAGGAGAAGGAUAUAGAAUAUAGGAUAUACUAGAAGGUCUGGUUGGUG (Eterna round: R96, puzzle: Same State NG 3) | – | 63.7 nM | – | – | – | –
27 | AAUUAUUCACAUGAGGAUCACCCAUGUGAUAUUAUUAUUACAAGCUUUUUGCUCGUCUUGUUCCUCAGUGAAUAAUU [Default title] (puzzle: Sensor for hsa-mir-208a version 2) | – | – | – | 18.3 nM | 74.5 nM | 15.9 nM
28 | UAGGAACAUGAGGAUCACCCAUGUACCUCAUAUGGAGAAACACAGGAUAUGCUCAGCGAAAGAGAGCAGAAGGGUGAAGAGAGG [Default title] (Eterna round: R96, puzzle: Same State NG 3) | 23.6 nM | 27.6 nM | 31.6 nM | – | – | –
29 | AGUCCAGCCUGAGCUGGACAAAAGCAUGUACAUGAGGAUCACCCAUGUCAUGUACAAGCUUUUUGCUCGUCUUGAAA [Zipper 46 - 9] (puzzle: Sensor for hsa-mir-208a) | – | – | – | 737 nM | 16.8 nM | 807 nM
30 | UUAUAACAUGAGGAUCACCCAUGUCAACAAAGUCGAGGAUAUGGGCAAGAAGUGAGAGAACCAGAAGGCGAAUAUU [Mat - Same State 1 - Mod of UCT - D30] (puzzle: Same State 1) | – | – | – | 72 nM | 88.7 nM | 97.4 nM
31 | CAAGCUUGGGUCUUCCCGCUCGUCUACAAACAUGAGGAUCACCCAUGUAUACUCUUCGCAUCAAUUCUAUCUCUUGG [Onraenbi] (puzzle: Sensor for hsa-mir-208a) | – | – | – | 210 nM | 23.3 nM | 272 nM
